{
  "source": "paper PMC6778195",
  "about": "(2019)",
  "binders": {"B1": {"name": "ICAM-1^D1D5-Fc (Fc fusion)", "chain": "QTSVSPSKVILPRGGSVLVTCSTSCDQPKLLGIETPLPKKELLLPGNNRKVYELSNVQEDSQPMCYSNCPDGQSTAKTFLTVYWTPERVELAPLPSWQPVGKNLTLRCQVEGGAPRANLTVVLLRGEKELKREPAVGEPAEVTTTVLVRRDHHGANFSCRTELDLRPQGLELFENTSAPYQLQTFVLPATPPQLVSPRVLEVDTQGTVVCSLDGLFPVSEAQVHLALGDQRLNPTVTYGNDSFSAKASVSVTAEDEGTQRLTCAVILGNQSQETLQTVTIYSFPAPNVILTKPEVSEGTEVTVKCEAHPRAKVTLNGVPAQPLGPRAQLLLKATPEDNGRSFSCSATLEVAGQLIHKNQTRELRVLYGPRLDERDCPGNWTWPENSQQTPMCQAWGNPLPELKCLKDGTFPLPIGESVTVTRDLEGTYLCRARSTQGEVTRKVTVNVLSPRYE"}},
  "target": "J1a DBLβ domain (wild type) (Plasmodium falciparum)",
  "experiment": "SPR",
  "data": [
    {"binder": "B1", "values": [
      {"measurement": "Kd", "value": 262, "unit": "nM"}
    ]}
  ]
}
